Assay results from patent US20140294898A1 (published 2014).
Positions of bridges follow the written chain, without caps; N, C: chain ends. Non-standard residues stand in square brackets, D forms with d. NMeNle = CCCC[C@H](NC)C(=O)O; NMeA = CN[C@@H](C)C(=O)O

How the values were obtained:
[1] = target: T1, hPDL1(19-239)-TVMV-His (recombinant human PD-L1-TVMV-His) (UniProt Q9NZQ7 19-239); test: HTRF PD-1/PD-L1 binding inhibition
[2] = target: T1, hPDL1(19-239)-TVMV-His (recombinant …); test: HTRF competition with biotinylated Compound No. 71
human PD-L1 on cells = human PD-L1 on cells (human, UniProt Q9NZQ7 19-290); test: cell binding assay, blocking of PD-1-Ig (PE) to LK35.2-hPD-L1 cells
Sequence of human PD-L1 on cells (Q9NZQ7 19-290): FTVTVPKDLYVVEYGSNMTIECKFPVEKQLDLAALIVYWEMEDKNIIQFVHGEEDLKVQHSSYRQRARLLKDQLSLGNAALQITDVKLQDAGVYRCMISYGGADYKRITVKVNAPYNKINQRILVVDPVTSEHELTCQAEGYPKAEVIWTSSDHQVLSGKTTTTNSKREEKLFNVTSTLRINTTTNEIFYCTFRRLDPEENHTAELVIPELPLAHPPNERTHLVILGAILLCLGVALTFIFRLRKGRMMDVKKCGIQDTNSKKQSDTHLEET

T1 sequence (Q9NZQ7 other isoform, or with tags, fused parts or gaps): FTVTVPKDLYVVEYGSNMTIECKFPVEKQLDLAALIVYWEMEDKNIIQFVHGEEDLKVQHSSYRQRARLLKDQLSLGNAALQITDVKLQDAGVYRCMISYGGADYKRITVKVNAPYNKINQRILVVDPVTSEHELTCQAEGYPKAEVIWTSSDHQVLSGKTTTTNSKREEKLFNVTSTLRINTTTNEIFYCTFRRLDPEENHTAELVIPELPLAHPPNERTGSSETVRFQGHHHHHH

B1: Compound No. 71 (peptide)
peptide: FFXGDVFYGWYLCG
HELM: PEPTIDE1{[O=C(C[*:3])[*:2]].F.[meF].[CCCC[C@@H](C(=O)[*:2])N(C)[*:1]].[Sar].D.V.[meF].Y.[Sar].W.Y.L.C.G.[am]}$PEPTIDE1,PEPTIDE1,1:R3-14:R3$$$V2.0
SMILES: CCCC[C@H]1C(=O)N(C)CC(=O)N[C@@H](CC(=O)O)C(=O)N[C@@H](C(C)C)C(=O)N(C)[C@@H](Cc2ccccc2)C(=O)N[C@@H](Cc2ccc(O)cc2)C(=O)N(C)CC(=O)N[C@@H](Cc2c[nH]c3ccccc23)C(=O)N[C@@H](Cc2ccc(O)cc2)C(=O)N[C@@H](CC(C)C)C(=O)N[C@H](C(=O)NCC(N)=O)CSCC(=O)N[C@@H](Cc2ccccc2)C(=O)N(C)[C@@H](Cc2ccccc2)C(=O)N1C
B1 was tested, and the IC50 [1] was 1 nM, the IC50 [2] was 83 nM and the IC50 (human PD-L1 on cells) was 1 nM.

Binder {CH2CO}-FLIVIRDRVFRCG-NH2 (thioether N-12) [Compound No. 99] has an IC50 [1] of 90 nM, an IC50 [2] of 4310 nM and an IC50 (human PD-L1 on cells) of 133 nM.

B2: Compound No. 2 (peptide)
peptide: {CH2CO}-F[NMeA]NPHHSWRW[NMeNle][NMeNle]LCG-NH2
modifications: thioether N-14
SMILES: CCCC[C@H]1C(=O)N(C)[C@@H](CCCC)C(=O)N[C@@H](CC(C)C)C(=O)N[C@H](C(=O)NCC(N)=O)CSCC(=O)N[C@@H](Cc2ccccc2)C(=O)N(C)[C@@H](C)C(=O)N[C@@H](CC(N)=O)C(=O)N2CCC[C@H]2C(=O)N[C@@H](Cc2c[nH]cn2)C(=O)N[C@@H](Cc2c[nH]cn2)C(=O)N[C@@H](CO)C(=O)N[C@@H](Cc2c[nH]c3ccccc23)C(=O)N[C@@H](CCCNC(=N)N)C(=O)N[C@@H](Cc2c[nH]c3ccccc23)C(=O)N1C
With B2 the IC50 [1] was 14 nM, the IC50 [2] was 584 nM and the IC50 (human PD-L1 on cells) was 40 nM.
